Measurements taken from US20250361312A1.
Like-named read-outs stand apart in the source and are kept apart here.

Experiments:
[1] = target: human OX40 receptor, cell-expressed (DO11.10-hOX40) (human) (UniProt P43489); test: cell-based or functional assay
[2] = target: cynomolgus OX40 receptor, cell-expressed (DO11.10-cOX40) (cynomolgus); test: flow cytometry on DO11.10-cOX40 cells
[3] = target: human OX40 receptor, cell-expressed (DO11.10-hOX40) (human) (UniProt P43489); test: flow cytometry on DO11.10-hOX40 cells
[4] = target: human OX40 receptor, cell-expressed (DO11.10-hOX40) (human) (UniProt P43489); test: cell-based or functional assay; remark: listed apart in the source
[5] = target: human OX40 receptor, cell-expressed (DO11.10-hOX40) (human) (UniProt P43489); test: cell-based or functional assay; remark: listed apart in the source
[6] = target: human OX40 receptor, cell-expressed (DO11.10-hOX40) (human) (UniProt P43489); test: cell-based or functional assay; remark: listed apart in the source

Chain of human OX40 receptor, cell-expressed (DO11.10-hOX40) (human) (P43489 29-277): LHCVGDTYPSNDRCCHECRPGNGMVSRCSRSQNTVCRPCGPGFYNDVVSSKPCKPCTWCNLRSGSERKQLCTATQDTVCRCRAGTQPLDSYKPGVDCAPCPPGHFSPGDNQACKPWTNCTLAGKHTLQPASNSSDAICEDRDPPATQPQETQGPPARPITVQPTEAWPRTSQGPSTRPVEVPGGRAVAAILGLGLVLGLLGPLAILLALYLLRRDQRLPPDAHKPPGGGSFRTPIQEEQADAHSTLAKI
Chain of cynomolgus OX40 receptor, cell-expressed (DO11.10-cOX40) (cynomolgus) (P43489 other isoform, or with tags, fused parts or gaps): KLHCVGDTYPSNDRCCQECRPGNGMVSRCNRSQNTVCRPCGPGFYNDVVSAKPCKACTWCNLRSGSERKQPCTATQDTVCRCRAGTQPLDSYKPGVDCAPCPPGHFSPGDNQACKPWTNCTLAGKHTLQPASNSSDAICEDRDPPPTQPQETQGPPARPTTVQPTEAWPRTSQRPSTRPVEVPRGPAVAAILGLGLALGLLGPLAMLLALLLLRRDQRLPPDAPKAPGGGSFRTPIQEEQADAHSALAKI

| EC50 of IL-2 release, crosslinked (anti-human CH2 mAb) [1] [nM] | Max response, crosslinked [1] [hIL-2 pg/ml] | EC50 [2] [nM] | EC50 [3] [nM] | EC50 of IL-2 release, Xlink (anti-hCH2) [4] [pM] | Max response, Xlink (anti-hCH2) [4] [mIL-2 pg/ml] | EC50 of IL-2 release, Xlink (anti-hCH2) [5] [nM] | Max response, Xlink (anti-hCH2) [5] [mIL-2 pg/ml] | EC50 of IL-2 release, Xlink (anti-hCH2) [6] [nM] | Max response, Xlink (anti-hCH2) [6] [mIL-2 pg/ml] | EC50 of IL-2 release, HPAC cells present, Xlink (anti-hCH2) [1] [nM] | EC50 of IL-2 release, Xlink (anti-hCH2) [1] [nM] | Max response, HPAC cells present, Xlink (anti-hCH2) [1] [mIL-2 pg/ml] | Max response, Xlink (anti-hCH2) [1] [mIL-2 pg/ml] | Substance |
| --- | --- | --- | --- | --- | --- | --- | --- | --- | --- | --- | --- | --- | --- | --- |
| 0.0493 | 26700 | 0.213 | 0.814 | – | – | – | – | – | – | – | – | – | – | G1AA/11D4 (antibody) |
| – | – | – | – | 0.153 | 25000 | 0.196 | 7200 | 0.14 | 24500 | 0.228 | 0.199 | 14800 | 21900 | G1/11D4 (antibody) |
